The text below walks through data of paper PMC5576363.

The target in one data set is T1, LbuC2c2-dHEPN1 (Leptotrichia buccalis, UniProt C7NBY4 1-1159, R472A;H477A).
T1 sequence: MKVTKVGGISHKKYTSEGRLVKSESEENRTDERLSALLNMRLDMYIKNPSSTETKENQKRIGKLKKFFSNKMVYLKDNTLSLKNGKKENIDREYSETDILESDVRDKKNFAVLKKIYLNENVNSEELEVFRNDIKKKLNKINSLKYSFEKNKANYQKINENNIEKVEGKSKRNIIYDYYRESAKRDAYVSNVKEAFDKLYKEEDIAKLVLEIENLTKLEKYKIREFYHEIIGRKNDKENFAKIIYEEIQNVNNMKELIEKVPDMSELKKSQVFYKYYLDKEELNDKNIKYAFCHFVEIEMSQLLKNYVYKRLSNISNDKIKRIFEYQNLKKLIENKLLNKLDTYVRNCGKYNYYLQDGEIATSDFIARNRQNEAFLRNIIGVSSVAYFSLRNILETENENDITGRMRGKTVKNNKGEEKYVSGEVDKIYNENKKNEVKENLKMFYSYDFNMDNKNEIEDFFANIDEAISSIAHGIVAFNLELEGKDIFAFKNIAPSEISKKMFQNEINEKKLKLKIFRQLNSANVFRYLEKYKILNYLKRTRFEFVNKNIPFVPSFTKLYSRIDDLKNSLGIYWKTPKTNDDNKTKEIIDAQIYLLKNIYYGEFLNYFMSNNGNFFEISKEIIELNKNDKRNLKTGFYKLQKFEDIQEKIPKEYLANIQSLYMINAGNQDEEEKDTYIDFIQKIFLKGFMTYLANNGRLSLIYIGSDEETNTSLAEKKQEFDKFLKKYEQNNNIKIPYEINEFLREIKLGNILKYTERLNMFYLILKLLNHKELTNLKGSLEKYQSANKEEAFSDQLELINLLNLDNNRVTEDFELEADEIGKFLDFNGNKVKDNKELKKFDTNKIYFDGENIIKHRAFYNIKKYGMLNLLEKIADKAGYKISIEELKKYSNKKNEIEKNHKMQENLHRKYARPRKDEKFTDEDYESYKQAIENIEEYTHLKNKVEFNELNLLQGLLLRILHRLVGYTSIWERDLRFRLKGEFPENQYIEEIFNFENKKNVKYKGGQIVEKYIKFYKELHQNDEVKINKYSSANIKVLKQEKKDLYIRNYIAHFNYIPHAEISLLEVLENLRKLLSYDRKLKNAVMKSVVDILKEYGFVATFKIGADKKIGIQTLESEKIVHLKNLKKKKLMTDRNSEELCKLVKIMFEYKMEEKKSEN
The experiment in a line: filter binding.

The target of data set [1] is T2, LbuC2c2-dHEPN1/dHEPN2 (Leptotrichia buccalis, UniProt C7NBY4 1-1159, R472A;H477A;R1048A;H1053A).
T2 sequence: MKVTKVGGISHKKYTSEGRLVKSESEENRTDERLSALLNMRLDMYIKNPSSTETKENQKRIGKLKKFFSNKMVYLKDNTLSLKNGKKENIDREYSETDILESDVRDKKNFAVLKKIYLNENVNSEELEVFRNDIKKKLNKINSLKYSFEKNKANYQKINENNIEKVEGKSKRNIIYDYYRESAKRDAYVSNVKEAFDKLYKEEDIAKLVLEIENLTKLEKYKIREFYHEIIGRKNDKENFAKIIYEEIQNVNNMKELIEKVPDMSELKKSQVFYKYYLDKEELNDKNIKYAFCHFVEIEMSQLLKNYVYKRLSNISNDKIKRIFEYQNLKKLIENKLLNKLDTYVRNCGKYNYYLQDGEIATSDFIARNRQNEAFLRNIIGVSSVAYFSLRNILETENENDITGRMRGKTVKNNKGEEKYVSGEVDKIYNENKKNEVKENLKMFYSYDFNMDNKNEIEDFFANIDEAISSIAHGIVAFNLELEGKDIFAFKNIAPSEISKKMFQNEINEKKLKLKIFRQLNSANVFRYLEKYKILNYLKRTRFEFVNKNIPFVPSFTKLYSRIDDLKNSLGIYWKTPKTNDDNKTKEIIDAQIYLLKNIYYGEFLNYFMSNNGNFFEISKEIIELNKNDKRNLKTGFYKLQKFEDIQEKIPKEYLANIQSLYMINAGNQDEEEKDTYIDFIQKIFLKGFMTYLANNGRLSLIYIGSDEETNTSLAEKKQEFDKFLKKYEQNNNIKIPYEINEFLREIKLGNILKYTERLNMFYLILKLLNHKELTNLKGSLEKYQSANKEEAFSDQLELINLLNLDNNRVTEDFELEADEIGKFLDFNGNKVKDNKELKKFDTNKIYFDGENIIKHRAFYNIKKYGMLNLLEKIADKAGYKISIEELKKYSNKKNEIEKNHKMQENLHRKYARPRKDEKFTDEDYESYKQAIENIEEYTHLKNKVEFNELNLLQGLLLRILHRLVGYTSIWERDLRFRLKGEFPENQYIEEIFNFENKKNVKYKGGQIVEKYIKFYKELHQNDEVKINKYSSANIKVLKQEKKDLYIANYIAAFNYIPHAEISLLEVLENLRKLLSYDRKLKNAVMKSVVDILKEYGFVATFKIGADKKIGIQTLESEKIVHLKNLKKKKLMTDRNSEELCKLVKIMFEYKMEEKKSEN
The experiment in a line: filter binding.

Another data set deals with T3, LbuC2c2-dHEPN2 (Leptotrichia buccalis, UniProt C7NBY4 1-1159, R1048A;H1053A).
T3 sequence: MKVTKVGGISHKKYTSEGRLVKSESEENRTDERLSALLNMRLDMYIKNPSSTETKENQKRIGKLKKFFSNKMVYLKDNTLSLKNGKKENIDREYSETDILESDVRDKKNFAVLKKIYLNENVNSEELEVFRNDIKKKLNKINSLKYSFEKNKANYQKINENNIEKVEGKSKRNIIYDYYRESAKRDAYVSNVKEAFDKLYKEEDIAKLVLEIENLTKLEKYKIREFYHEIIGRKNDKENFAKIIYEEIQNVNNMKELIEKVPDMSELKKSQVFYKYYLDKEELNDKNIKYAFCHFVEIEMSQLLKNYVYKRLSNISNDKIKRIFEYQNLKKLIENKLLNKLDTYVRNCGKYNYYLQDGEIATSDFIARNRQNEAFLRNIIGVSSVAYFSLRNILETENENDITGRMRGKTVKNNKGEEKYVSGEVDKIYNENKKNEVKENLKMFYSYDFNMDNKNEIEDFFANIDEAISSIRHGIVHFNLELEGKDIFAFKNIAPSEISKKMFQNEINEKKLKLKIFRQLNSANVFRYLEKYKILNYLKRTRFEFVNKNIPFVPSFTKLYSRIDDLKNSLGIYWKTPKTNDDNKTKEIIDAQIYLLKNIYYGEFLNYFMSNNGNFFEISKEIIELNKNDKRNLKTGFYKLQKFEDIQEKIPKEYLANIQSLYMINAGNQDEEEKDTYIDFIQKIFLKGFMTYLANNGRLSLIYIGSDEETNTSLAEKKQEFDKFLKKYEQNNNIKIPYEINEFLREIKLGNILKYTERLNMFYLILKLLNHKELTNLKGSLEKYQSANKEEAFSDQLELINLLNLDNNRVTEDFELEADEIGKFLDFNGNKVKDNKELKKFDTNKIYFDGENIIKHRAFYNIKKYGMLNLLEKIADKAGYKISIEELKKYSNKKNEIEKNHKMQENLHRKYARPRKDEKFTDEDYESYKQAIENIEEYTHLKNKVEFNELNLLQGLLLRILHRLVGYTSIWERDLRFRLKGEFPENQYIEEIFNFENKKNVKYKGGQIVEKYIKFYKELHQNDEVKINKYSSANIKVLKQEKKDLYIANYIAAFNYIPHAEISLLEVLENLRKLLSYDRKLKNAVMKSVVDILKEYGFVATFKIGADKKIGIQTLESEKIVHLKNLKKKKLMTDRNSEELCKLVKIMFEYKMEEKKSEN
Nature of the data set: filter binding.

In data set [2] the target is T2, LbuC2c2-dHEPN1/dHEPN2. The experiment in a line: EMSA. In general terms: A gel shift assay detects complexes by their altered migration in electrophoresis.
Another data set addresses T4, LbuC2c2-R1079A (Leptotrichia buccalis, UniProt C7NBY4 1-1159, R1079A).
T4 sequence: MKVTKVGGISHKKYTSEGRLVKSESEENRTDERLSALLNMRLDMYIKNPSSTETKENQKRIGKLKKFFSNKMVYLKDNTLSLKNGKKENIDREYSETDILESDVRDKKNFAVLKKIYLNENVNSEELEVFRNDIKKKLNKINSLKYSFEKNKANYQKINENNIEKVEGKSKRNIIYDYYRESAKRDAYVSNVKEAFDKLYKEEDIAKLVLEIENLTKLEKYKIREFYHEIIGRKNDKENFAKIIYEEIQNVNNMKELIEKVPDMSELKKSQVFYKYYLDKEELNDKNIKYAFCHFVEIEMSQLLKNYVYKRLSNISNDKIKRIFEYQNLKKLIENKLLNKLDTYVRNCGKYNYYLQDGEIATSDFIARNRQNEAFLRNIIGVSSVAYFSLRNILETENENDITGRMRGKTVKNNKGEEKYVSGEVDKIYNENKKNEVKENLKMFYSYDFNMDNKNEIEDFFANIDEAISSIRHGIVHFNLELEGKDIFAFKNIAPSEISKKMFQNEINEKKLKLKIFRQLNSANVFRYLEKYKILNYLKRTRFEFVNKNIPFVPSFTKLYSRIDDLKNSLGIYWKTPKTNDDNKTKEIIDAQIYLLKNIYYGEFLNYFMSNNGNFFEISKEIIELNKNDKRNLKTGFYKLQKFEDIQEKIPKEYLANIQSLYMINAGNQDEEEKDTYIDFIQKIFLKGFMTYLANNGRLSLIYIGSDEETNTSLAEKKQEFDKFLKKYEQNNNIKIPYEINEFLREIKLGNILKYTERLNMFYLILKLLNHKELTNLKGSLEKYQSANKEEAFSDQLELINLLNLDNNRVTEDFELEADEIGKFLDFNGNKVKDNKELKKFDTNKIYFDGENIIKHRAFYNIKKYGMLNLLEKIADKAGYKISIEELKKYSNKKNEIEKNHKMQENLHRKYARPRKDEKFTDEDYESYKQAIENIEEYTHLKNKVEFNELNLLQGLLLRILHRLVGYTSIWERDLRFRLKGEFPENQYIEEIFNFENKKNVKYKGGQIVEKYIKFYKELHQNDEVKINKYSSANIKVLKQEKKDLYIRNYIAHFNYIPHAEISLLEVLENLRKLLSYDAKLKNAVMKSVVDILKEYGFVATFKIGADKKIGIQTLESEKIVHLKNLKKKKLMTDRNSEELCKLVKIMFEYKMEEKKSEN
Nature of the data set: filter binding.

B1: mature crRNA-A_GG (crLbu_A_GG_AES432) (structured_RNA)
RNA: GGCCACCCCAAAAAUGAAGGGGACUAAAACAGGGGCAGAGAUGAUGACCCU
What is called Kd is a measure of binding affinity in units of concentration. A lower Kd goes with tighter binding. As to B1, the Kd is 15.2 ± 3.2 nM with LbuC2c2-dHEPN1, 43.3 ± 11.5 nM in the data set with LbuC2c2-dHEPN1/dHEPN2 [1] and 11.5 ± 2.5 nM with LbuC2c2-dHEPN2.

B2: crRNA-A_GG guide + on-target A ssRNA (mixed)
RNA 1: GGCCACCCCAAAAAUGAAGGGGACUAAAACAGGGGCAGAGAUGAUGACCCU
RNA 2: GGCACACCCGCAGGGGGGAGCCAAAAGGGUCAUCAUCUCUGCCCCCACAGCAGAAGCCCC
In the data set with LbuC2c2-dHEPN1/dHEPN2 [2], B2 showed a dissociation constant (Kd) of 1.62 ± 0.43 nM.

B3: mature crRNA-A_GA (crLbu_A_mature_GA_SCK340) (structured_RNA)
RNA: GACCACCCCAAAAAUGAAGGGGACUAAAACAGGGGCAGAGAUGAUGACCCU
For the molecule B3, the Kd in the data set with LbuC2c2-R1079A stood at 2.52 ± 0.5 nM.
